How the values were obtained:
[1] = system: rat model of cerebral ischemia; test: Distal occlusion of the middle cerebral artery as a model of cerebral stroke; assay type: in vivo
Protocol: Male Sprague Dawley rats (weight 230-270 g, Envigo, Netherlands) were used for the experiments which were conducted according to the 3R principles of EU directive 2010/63/EU on the care and use of experimental animals, local laws and regulations, and were approved by the national Animal Experiment Board of Finland All experiments were performed in a blinded manner and the rats were assigned to different treatment groups randomly. Rats were anesthesized with chloral hydrate (0.4 g/kg, i.p). A cortical stroke was induced by occluding the distal middle cerebral artery (dMCA) together with a bilateral common carotid artery (CCA) occlusion for 60 min as described previously (Chen, et al., 1986). Briefly, the bilateral CCAs were identified and isolated through a ventral midline cervical incision. Rats were placed in stereotaxic apparatus and a craniotomy was made in the right hemisphere. The right (MCA) was ligated with a 10-0 suture and bilateral common carotids (CCA) were ligated with non-traumatic arterial clamps for 60 minutes. […]
To test the neuroprotective effect of subcutaneous C-CDNF, 50 μg of C-CDNF was given 30-50 min before dMCA occlusion and immediately after reperfusion in volume of 100 μl s.c. Phosphate-buffered saline (PBS) was used as vehicle control. […] The area of infarction in each slice was measured with a digital scanner and ImageJ software. […]

dopamine neurons = test: Survival of TH-positive dopamine neurons in dissociated midbrain floor cultures; assay type: cell-based, mouse; settings: for survived neurons as % compared to neurons grown in the presence of GDNF: Table 3A (FIG. 15); for survived neurons as % compared to neurons grown in the presence of GDNF / protection of dopaminergic neurons in culture (result in words): 5 days; for Fold change of survived neurons compared to neurons grown without growth factors: data of Table 3 divided by values of no factor; for protection of dopaminergic neurons in culture (result in words): added to the culture medium, TH-positive neurons counted
How it was run: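 Dissociated E13.5 NMRI mouse midbrain floor neurons grown five days in DMEM/F12 with N2, with polypeptides at a range of concentrations, GDNF (100 ng/ml), or nothing. TH-immunopositive neurons were counted by imaging. Values are a percentage of GDNF-maintained TH-positive neurons, as mean ± SEM from at least three independent cultures.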

B1: KYEKTLDLASVDLRKMRVAELKQILHSWGEECRACAEKTDYVNLIQELAPKYAATHPKTEL (peptide, listed as Homo sapiens)
chain: KYEKTLDLASVDLRKMRVAELKQILHSWGEECRACAEKTDYVNLIQELAPKYAATHPKTEL
infarction volume (rostral part of the cerebral cortex) ([1]; 50 μg s.c. 30-50 minutes before dMCA occlusion and right after reperfusion, p<0.05 vs PBS): decreases | smaller lesions than the vehicle treated rats ([1]; 50 μg s.c. before dMCA occlusion and right after reperfusion, n=8-9): about 50% | survived neurons as % compared to neurons grown in the presence of GDNF (dopamine neurons; AVG, 1 ng/ml): 63.97 % GDNF | survived neurons as % compared to neurons grown in the presence of GDNF (dopamine neurons; AVG, 10 ng/ml): 80.69 % GDNF | survived neurons as % compared to neurons grown in the presence of GDNF (dopamine neurons; AVG, 100 ng/ml): 77.02 % GDNF | survived neurons as % compared to neurons grown in the presence of GDNF (dopamine neurons; AVG, 1000 ng/ml): 70.02 % GDNF | survived neurons as % compared to neurons grown in the presence of GDNF (dopamine neurons; exp1, 1 ng/ml): 62.96 % GDNF | survived neurons as % compared to neurons grown in the presence of GDNF (dopamine neurons; exp1, 10 ng/ml): 81.68 % GDNF | survived neurons as % compared to neurons grown in the presence of GDNF (dopamine neurons; exp1, 100 ng/ml): 91.48 % GDNF | survived neurons as % compared to neurons grown in the presence of GDNF (dopamine neurons; exp1, 1000 ng/ml): 75.02 % GDNF | survived neurons as % compared to neurons grown in the presence of GDNF (dopamine neurons; exp2, 1 ng/ml): 67.36 % GDNF | survived neurons as % compared to neurons grown in the presence of GDNF (dopamine neurons; exp2, 10 ng/ml): 80.97 % GDNF | survived neurons as % compared to neurons grown in the presence of GDNF (dopamine neurons; exp2, 100 ng/ml): 65.28 % GDNF | survived neurons as % compared to neurons grown in the presence of GDNF (dopamine neurons; exp2, 1000 ng/ml): 61.07 % GDNF | survived neurons as % compared to neurons grown in the presence of GDNF (dopamine neurons; exp3, 1 ng/ml): 61.59 % GDNF | survived neurons as % compared to neurons grown in the presence of GDNF (dopamine neurons; exp3, 10 ng/ml): 79.42 % GDNF | survived neurons as % compared to neurons grown in the presence of GDNF (dopamine neurons; exp3, 100 ng/ml): 74.30 % GDNF | survived neurons as % compared to neurons grown in the presence of GDNF (dopamine neurons; exp3, 1000 ng/ml): 73.98 % GDNF | Fold change of survived neurons compared to neurons grown without growth factors (dopamine neurons; Table 4, AVG, 1 ng/ml): 1.04 fold | Fold change of survived neurons compared to neurons grown without growth factors (dopamine neurons; Table 4, AVG, 10 ng/ml): 1.31 fold | Fold change of survived neurons compared to neurons grown without growth factors (dopamine neurons; Table 4, AVG, 100 ng/ml): 1.26 fold | Fold change of survived neurons compared to neurons grown without growth factors (dopamine neurons; Table 4, AVG, 1000 ng/ml): 1.14 fold | Fold change of survived neurons compared to neurons grown without growth factors (dopamine neurons; Table 4, exp1, 1 ng/ml): 1.10 fold | Fold change of survived neurons compared to neurons grown without growth factors (dopamine neurons; Table 4, exp1, 10 ng/ml): 1.43 fold | Fold change of survived neurons compared to neurons grown without growth factors (dopamine neurons; Table 4, exp1, 100 ng/ml): 1.60 fold | Fold change of survived neurons compared to neurons grown without growth factors (dopamine neurons; Table 4, exp1, 1000 ng/ml): 1.31 fold | Fold change of survived neurons compared to neurons grown without growth factors (dopamine neurons; Table 4, exp2, 1 ng/ml): 1.07 fold | Fold change of survived neurons compared to neurons grown without growth factors (dopamine neurons; Table 4, exp2, 10 ng/ml): 1.28 fold | Fold change of survived neurons compared to neurons grown without growth factors (dopamine neurons; Table 4, exp2, 100 ng/ml): 1.04 fold | Fold change of survived neurons compared to neurons grown without growth factors (dopamine neurons; Table 4, exp2, 1000 ng/ml): 0.97 fold | Fold change of survived neurons compared to neurons grown without growth factors (dopamine neurons; Table 4, exp3, 1 ng/ml): 0.95 fold | Fold change of survived neurons compared to neurons grown without growth factors (dopamine neurons; Table 4, exp3, 10 ng/ml): 1.23 fold | Fold change of survived neurons compared to neurons grown without growth factors (dopamine neurons; Table 4, exp3, 100 ng/ml): 1.15 fold | Fold change of survived neurons compared to neurons grown without growth factors (dopamine neurons; Table 4, exp3, 1000 ng/ml): 1.14 fold | protection of dopaminergic neurons in culture (result in words) (dopamine neurons): protects | protection of dopaminergic neurons in culture (result in words) (dopamine neurons; listed as C-terminal CDNF fragment): potently protected
